# Reference: patent publication US20250186620A1 (DUKE UNIVERSITY, published 2025)
# T1: Wild-type Connexin35 (Cx35) of Morone americana (Morone americana)
# T1 construct: Connexin hemichannel (hexamer) expressed in HEK 293FT cells; In C. elegans it was expressed as GFP or mCherry fusion; also called Cx35WT; not shown: C-terminal fluorescent protein fusion (mEmerald or RFP670 in FETCH)
# T1 chain: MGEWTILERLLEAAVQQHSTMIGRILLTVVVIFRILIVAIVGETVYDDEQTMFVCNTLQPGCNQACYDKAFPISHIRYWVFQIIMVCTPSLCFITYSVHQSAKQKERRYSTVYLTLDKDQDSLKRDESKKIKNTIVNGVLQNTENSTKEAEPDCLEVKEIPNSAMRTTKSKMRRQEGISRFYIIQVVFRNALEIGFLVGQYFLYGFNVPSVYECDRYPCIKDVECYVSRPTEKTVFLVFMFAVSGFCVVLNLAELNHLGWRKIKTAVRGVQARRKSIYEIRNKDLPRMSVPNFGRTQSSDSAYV
# T2: Cx35E224H (Morone americana Cx35 mutant E224H) (Morone americana)
# T2 construct: Extracellular loop mutant of the screening library; not shown: C-terminal fluorescent protein fusion (mEmerald or RFP670 in FETCH)
# T2 chain: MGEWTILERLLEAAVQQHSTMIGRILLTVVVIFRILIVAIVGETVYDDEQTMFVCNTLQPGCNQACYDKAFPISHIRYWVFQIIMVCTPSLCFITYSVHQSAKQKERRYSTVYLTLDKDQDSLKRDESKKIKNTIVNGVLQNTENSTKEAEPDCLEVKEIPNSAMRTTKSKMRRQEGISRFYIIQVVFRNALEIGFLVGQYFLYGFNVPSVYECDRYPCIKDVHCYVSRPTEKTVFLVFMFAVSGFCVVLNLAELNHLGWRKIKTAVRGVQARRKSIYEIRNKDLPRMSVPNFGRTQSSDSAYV
# T3: Cx35E224K (Morone americana Cx35 mutant E224K) (Morone americana)
# T3 construct: Extracellular loop mutant of the screening library; not shown: C-terminal fluorescent protein fusion (mEmerald or RFP670 in FETCH)
# T3 chain: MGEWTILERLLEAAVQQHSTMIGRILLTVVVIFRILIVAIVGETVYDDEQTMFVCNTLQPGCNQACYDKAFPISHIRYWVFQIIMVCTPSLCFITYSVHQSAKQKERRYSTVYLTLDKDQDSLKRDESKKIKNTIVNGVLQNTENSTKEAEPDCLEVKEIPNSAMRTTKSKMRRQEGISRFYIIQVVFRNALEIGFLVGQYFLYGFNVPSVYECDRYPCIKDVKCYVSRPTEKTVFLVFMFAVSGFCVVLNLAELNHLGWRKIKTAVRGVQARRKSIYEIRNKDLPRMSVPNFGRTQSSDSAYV
# T4: Cx35E224R (Morone americana Cx35 mutant E224R) (Morone americana)
# T4 construct: Extracellular loop mutant of the screening library; not shown: C-terminal fluorescent protein fusion (mEmerald or RFP670 in FETCH)
# T4 chain: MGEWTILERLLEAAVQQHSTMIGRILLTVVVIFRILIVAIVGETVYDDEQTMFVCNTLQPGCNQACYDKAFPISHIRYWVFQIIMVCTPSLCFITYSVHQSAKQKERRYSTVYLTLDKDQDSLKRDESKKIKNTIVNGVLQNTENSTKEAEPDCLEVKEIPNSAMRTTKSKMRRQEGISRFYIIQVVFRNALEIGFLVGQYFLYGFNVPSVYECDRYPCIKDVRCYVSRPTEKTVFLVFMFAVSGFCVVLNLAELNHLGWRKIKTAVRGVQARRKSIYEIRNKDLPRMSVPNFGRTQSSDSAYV
# T5: Cx35K221E (designer connexin Cx35M1, Morone americana Cx35 with K221E) (Morone americana)
# T5 construct: Rationally designed hemichannel; In C. elegans expressed as GFP or mCherry fusion; in mice from AAV9 as mApple or mEmerald fusion; not shown: C-terminal fluorescent protein fusion (mEmerald or RFP670 in FETCH)
# T5 chain: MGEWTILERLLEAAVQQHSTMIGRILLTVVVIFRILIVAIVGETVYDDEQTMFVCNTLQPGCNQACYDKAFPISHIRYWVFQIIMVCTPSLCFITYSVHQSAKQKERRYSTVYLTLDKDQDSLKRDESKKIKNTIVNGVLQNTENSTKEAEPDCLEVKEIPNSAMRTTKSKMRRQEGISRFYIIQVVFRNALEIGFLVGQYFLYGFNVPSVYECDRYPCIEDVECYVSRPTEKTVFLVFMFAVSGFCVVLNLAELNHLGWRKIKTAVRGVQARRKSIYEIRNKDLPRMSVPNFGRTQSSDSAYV
# B1: human connexin36 (Cx36) (other, UniProt Q9UKL4 1-321, looked up)
# chain: MGEWTILERLLEAAVQQHSTMIGRILLTVVVIFRILIVAIVGETVYDDEQTMFVCNTLQPGCNQACYDRAFPISHIRYWVFQIIMVCTPSLCFITYSVHQSAKQRERRYSTVFLALDRDPPESIGGPGGTGGGGSGGGKREDKKLQNAIVNGVLQNTENTSKETEPDCLEVKELTPHPSGLRTASKSKLRRQEGISRFYIIQVVFRNALEIGFLVGQYFLYGFSVPGLYECNRYPCIKEVECYVSRPTEKTVFLVFMFAVSGICVVLNLAELNHLGWRKIKLAVRGAQAKRKSIYEIRNKDLPRVSVPNFGRTQSSDSAYV
# notes: whole, on cells; Hemichannel expressed in HEK 293FT cells for FETCH; also called GJD2; not shown: C-terminal fluorescent protein fusion (mEmerald or RFP670 in FETCH)
# What was measured:
# [1] = target: T1, Wild-type Connexin35 (Cx35) of Morone …; experiment: heterotypic FETCH
# Protocol: (§1) Complete FETCH methodology is outlined in Ransey et. al. 2021 (Ransey E, et al. (2021) BioRxiv). Briefly, replica multi-well plates with HEK 293FT cells were transfected with either of the two connexin proteins being evaluated for docking. Following a transfection incubation period, experimental counterparts were combined, replated, and further incubated for about 20 hr to about 24 hrs, allowing cells to make contacts and potentially generate connexosomes. Co-plated samples were trypsinized, fixed in suspension and analyzed via flow cytometry. Flow cytometry data was processed with two selection gates prior to their fluorescence evaluation. First, putative HEK cells were identified by evaluating sample forward vs. side scatter area. Next, single cells were identified as the putative cells that maintained a linear correlation of forward scatter height to forward scatter area. Finally, the dual fluorescence (mEmerald vs. RFP670) profiles of each sample was generated, and the FETCH score was defined as the proportion of dual-labeled fluorescent cells that develop in a co-plated sample.
# [2] = target: B1; experiment: FETCH (flow cytometry, % dual-labelled HEK 293FT cells), heterotypic
# Protocol: as §1
# [3] = target: T6, human connexin43 (Cx43) (human, UniProt P17302 2-382); experiment: heterotypic FETCH
# T6 construct: whole, on cells; Hemichannel expressed in HEK 293FT cells for FETCH; also called GJA1; not shown: C-terminal fluorescent protein fusion (mEmerald or RFP670 in FETCH)
# T6 sequence (P17302 2-382): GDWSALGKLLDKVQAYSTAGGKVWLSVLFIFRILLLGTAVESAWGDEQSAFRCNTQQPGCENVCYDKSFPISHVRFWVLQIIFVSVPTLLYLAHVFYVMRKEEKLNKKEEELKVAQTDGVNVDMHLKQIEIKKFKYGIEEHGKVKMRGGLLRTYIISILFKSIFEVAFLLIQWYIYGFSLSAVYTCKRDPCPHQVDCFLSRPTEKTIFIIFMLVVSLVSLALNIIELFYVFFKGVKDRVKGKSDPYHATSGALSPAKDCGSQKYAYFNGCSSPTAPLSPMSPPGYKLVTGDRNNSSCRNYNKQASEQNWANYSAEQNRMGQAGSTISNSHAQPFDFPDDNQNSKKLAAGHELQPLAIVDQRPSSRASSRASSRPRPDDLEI
# Protocol: as §1
# [4] = target: the molecule itself; experiment: homotypic FETCH screen
# Protocol: as §1
# (§2) For screening analysis, five FETCH replicates were obtained for each condition (mutation). These scores were benchmarked against scores for Cx36 and Cx45 (FETCH=1.2±0.1%, n=54 replicates). To quantitatively determine whether a connexin pair docked, FETCH scores were determined for the dual fluorescence of cells under conditions where docking was not anticipated. These conditions included pairs of connexins previously established to not show docking: (i) Cx36 and Cx45 (FETCH=0.7±0.0%, n=59 replicates), (ii) homotypic Cx23 (FETCH=0.9±0.4%, n=6 previously collected replicates (Ransey E, et al. (2021) BioRxiv), and (iii) Cx36 and Cx43 (FETCH=1.2±0.2%, n=10 previously collected replicates (Ransey E, et al. (2021) BioRxiv), and under conditions for which cells were transfected with cytoplasmic fluorophores rather than tagged connexins (FETCH=4.4±0.6%, n=17 previously collected replicates (Ransey E, et al. (2021) BioRxiv).
# [5] = target: the molecule itself; experiment: FETCH (flow cytometry, % dual-labelled HEK 293FT cells), homotypic
# Protocol: as §1
# [6] = target: T6, human connexin43 (Cx43); experiment: FETCH (flow cytometry, % dual-labelled HEK 293FT cells), heterotypic, n=6
# Protocol: as §1
# [7] = target: T2, Cx35E224H (Morone americana Cx35 mutant …); experiment: heterotypic FETCH; score higher than for the wild type Cx34.7WT/Cx35WT pair
# Protocol: as §1, §2
# [8] = target: T3, Cx35E224K (Morone americana Cx35 mutant …); experiment: as above
# Protocol: as §1, §2
# [9] = target: T4, Cx35E224R (Morone americana Cx35 mutant …); experiment: as above
# Protocol: as §1, §2
# [10] = target: the molecule itself; experiment: homotypic FETCH
# Protocol: as §1
# [11] = target: B1; experiment: heterotypic FETCH
# Protocol: as §1
# [12] = target: T5, Cx35K221E (designer connexin Cx35M1, …); experiment: FETCH (flow cytometry, % dual-labelled HEK 293FT cells), heterotypic
# Protocol: as §1
# [13] = target: T6, human connexin43 (Cx43); experiment: as above
# Protocol: as §1
# [14] = target: T7, human connexin45 (Cx45) (human, UniProt P36383 1-396); experiment: FETCH (flow cytometry of co-plated HEK 293FT cells), benchmark pair
# T7 construct: whole, on cells; Hemichannel expressed in HEK 293FT cells for FETCH; non-docking benchmark partner of Cx36; also called GJC1; not shown: C-terminal fluorescent protein fusion (mEmerald or RFP670 in FETCH)
# T7 sequence (P36383 whole entry, the tested form may be a part): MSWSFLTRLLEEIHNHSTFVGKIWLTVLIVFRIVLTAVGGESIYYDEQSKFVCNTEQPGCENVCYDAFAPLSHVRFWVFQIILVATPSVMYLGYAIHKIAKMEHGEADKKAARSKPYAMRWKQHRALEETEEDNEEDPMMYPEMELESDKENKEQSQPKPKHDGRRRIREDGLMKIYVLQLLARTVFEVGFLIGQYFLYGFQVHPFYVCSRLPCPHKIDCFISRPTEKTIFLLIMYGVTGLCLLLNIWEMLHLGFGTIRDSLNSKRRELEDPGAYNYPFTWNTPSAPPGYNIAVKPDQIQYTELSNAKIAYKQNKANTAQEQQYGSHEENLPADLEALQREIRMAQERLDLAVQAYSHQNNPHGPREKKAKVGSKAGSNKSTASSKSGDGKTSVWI
# Protocol: as §1
# For screening analysis, five FETCH replicates were obtained for each condition (mutation). […] To quantitatively determine whether a connexin pair docked, FETCH scores were determined for the dual fluorescence of cells under conditions where docking was not anticipated. […]
binder,measurement,setting,value
"Wild-type Connexin34.7 (Cx34.7) of Morone americana (other, In C. elegans it was expressed as GFP or mCherry fusion; also called Cx34.7WT; not shown: C-terminal fluorescent protein fusion (mEmerald or RFP670 in FETCH)) MGEWTILERLLEAAVQQHSTMIGRILLTVVVIFRILIVAIVGETVYEDEQAMFICNTLQPGCNQACYDKAFPISHIRYWVFQIILVCTPSLCFITYSVHQSAKQKDRRYSFLYPIMERDYGGRDGARKLRNINGILVQHGGDGGGGKEEPDCLEVKEIPNAPRGLTHGKSSKVRRQEGISRFYIIQVVFRNALEIGFLAGQYFLYGFSVPGIFECDRYPCLKEVECYVSRPTEKTVFLVFMFAVSGICVVLNLAELNHLGWRKIKAAIRGVQARRKSICEIRKKDMAHLSQPPNLGRTQSSESAYV",binding result,[1],binds
same,FETCH score,[2],11.9%
"Cx34.7K222Q (Morone americana Cx34.7 mutant K222Q) (other, Extracellular loop mutant of the screening library; not shown: C-terminal fluorescent protein fusion (mEmerald or RFP670 in FETCH)) MGEWTILERLLEAAVQQHSTMIGRILLTVVVIFRILIVAIVGETVYEDEQAMFICNTLQPGCNQACYDKAFPISHIRYWVFQIILVCTPSLCFITYSVHQSAKQKDRRYSFLYPIMERDYGGRDGARKLRNINGILVQHGGDGGGGKEEPDCLEVKEIPNAPRGLTHGKSSKVRRQEGISRFYIIQVVFRNALEIGFLAGQYFLYGFSVPGIFECDRYPCLQEVECYVSRPTEKTVFLVFMFAVSGICVVLNLAELNHLGWRKIKAAIRGVQARRKSICEIRKKDMAHLSQPPNLGRTQSSESAYV",binding result,[3],no binding
same,binding result,[4],no binding
same,FETCH score,[5],0.4%
same,FETCH score,[2],22.8%
same,FETCH score,[6],1.3%
same,binding result,[7],binds
same,binding result,[8],binds
same,binding result,[9],binds
"Cx34.7E214K/E223K (designer connexin Cx34.7M1, Morone americana Cx34.7 with E214K and E223K) (other, Rationally designed hemichannel; In C. elegans expressed as GFP or mCherry fusion; in mice from AAV9 as mEmerald or mApple fusion; not shown: C-terminal fluorescent protein fusion (mEmerald or RFP670 in FETCH)) MGEWTILERLLEAAVQQHSTMIGRILLTVVVIFRILIVAIVGETVYEDEQAMFICNTLQPGCNQACYDKAFPISHIRYWVFQIILVCTPSLCFITYSVHQSAKQKDRRYSFLYPIMERDYGGRDGARKLRNINGILVQHGGDGGGGKEEPDCLEVKEIPNAPRGLTHGKSSKVRRQEGISRFYIIQVVFRNALEIGFLAGQYFLYGFSVPGIFKCDRYPCLKKVECYVSRPTEKTVFLVFMFAVSGICVVLNLAELNHLGWRKIKAAIRGVQARRKSICEIRKKDMAHLSQPPNLGRTQSSESAYV",binding result,[10],no binding
same,binding result,[11],no binding
same,binding result,[3],no binding
same,FETCH score,[5],1.1%
same,FETCH score,[12],35.7%
same,FETCH score,[2],1%
same,FETCH score,[13],0.9%
B1,binding result,[14],no binding
